Experimental data taken from paper PMC6441084, “The formin Drosophila homologue of Diaphanous2 (Diaph2) controls microtubule dynamics in colorectal cancer cells independent of its FH2-domain” (Scientific Reports, 2019).

Target: microtubules (MTs) polymerised from purified tubulin (Cytoskeleton, # T240) (UniProt P02550 1-451)
Experiment: cell-based or functional assay

| Binder | rate of MT-polymerization (turbidity at 340 nm, no taxol; 2 µM tubulin, 0.2 µM Diaph2 protein), fold against the buffer control [fold] |
| --- | --- |
| full-length (FL) Diaph2 (Drosophila homologue of Diaphanous2), GST-fusion protein (natural protein, human, UniProt O60879 1-1101, looked up) MEQPGAAASGAGGGSEEPGGGRSNKRSAGNRAANEEETKNKPKLNIQIKTLADDVRDRITSFRKSTVKKEKPLIQHPIDSQVAMSEFPAAQPLYDERSLNLSEKEVLDLFEKMMEDMNLNEEKKAPLRNKDFTTKREMVVQYISATAKSGGLKNSKHECTLSSQEYVHELRSGISDEKLLNCLESLRVSLTSNPVSWVNNFGHEGLGLLLDELEKLLDKKQQENIDKKNQYKLIQCLKAFMNNKFGLQRILGDERSLLLLARAIDPKQPNMMTEIVKILSAICIVGEENILDKLLGAITTAAERNNRERFSPIVEGLENQEALQLQVACMQFINALVTSPYELDFRIHLRNEFLRSGLKTMLPDLKEKENDELDIQLKVFDENKEDDLTELSHRLNDIRAEMDDMNEVYHLLYNMLKDTAAENYFLSILQHFLLIRNDYYIRPQYYKIIEECVSQIVLHCSGMDPDFKYRQRLDIDLTHLIDSCVNKAKVEESEQKAAEFSKKFDEEFTARQEAQAELQKRDEKIKELEAEIQQLRTQAQVLSSSSGIPGPPAAPPLPGVGPPPPPPAPPLPGGAPLPPPPPPLPGMMGIPPPPPPPLLFGGPPPPPPLGGVPPPPGISLNLPYGMKQKKMYKPEVSMKRINWSKIEPTELSENCFWLRVKEDKFENPDLFAKLALNFATQIKVQKNAEALEEKKTGPTKKKVKELRILDPKTAQNLSIFLGSYRMPYEDIRNVILEVNEDMLSEALIQNLVKHLPEQKILNELAELKNEYDDLCEPEQFGVVMSSVKMLQPRLSSILFKLTFEEHINNIKPSIIAVTLACEELKKSESFNRLLELVLLVGNYMNSGSRNAQSLGFKINFLCKIRDTKSADQKTTLLHFIADICEEKYRDILKFPEELEHVESASKVSAQILKSNLASMEQQIVHLERDIKKFPQAENQHDKFVEKMTSFTKTAREQYEKLSTMHNNMMKLYENLGEYFIFDSKTVSIEEFFGDLNNFRTLFLEAVRENNKRREMEEKTRRAKLAKEKAEQEKLERQKKKKQLIDINKEGDETGVMDNLLEALQSGAAFRDRRKRIPRNPDNRRVPLERSRSRHNGAISSK | 40 |
| FH2-domain of Diaph2 (aa 624-1049), GST-fusion protein (domain or fragment, human, UniProt O60879 624-1049, looked up) YGMKQKKMYKPEVSMKRINWSKIEPTELSENCFWLRVKEDKFENPDLFAKLALNFATQIKVQKNAEALEEKKTGPTKKKVKELRILDPKTAQNLSIFLGSYRMPYEDIRNVILEVNEDMLSEALIQNLVKHLPEQKILNELAELKNEYDDLCEPEQFGVVMSSVKMLQPRLSSILFKLTFEEHINNIKPSIIAVTLACEELKKSESFNRLLELVLLVGNYMNSGSRNAQSLGFKINFLCKIRDTKSADQKTTLLHFIADICEEKYRDILKFPEELEHVESASKVSAQILKSNLASMEQQIVHLERDIKKFPQAENQHDKFVEKMTSFTKTAREQYEKLSTMHNNMMKLYENLGEYFIFDSKTVSIEEFFGDLNNFRTLFLEAVRENNKRREMEEKTRRAKLAKEKAEQEKLERQKKKKQLIDINKE | 4 |
